Assay results from FireProtDB (doi:10.1021/bi048926x).
Several values for one entry are separate records, joined by “and”; a condition that tells them apart may be missing. Equal values may be shown once.

Conditions: Pseudomonas aeruginosa (strain ATCC 15692 / DSM 22644 / CIP 104116 / JCM 14847 / LMG 12228 / 1C / PRS 101 / PAO1), pH 7, Thermal, reversible: No, whole UniProt chain shown

B1: Azurin wild type, P00282 (protein)
chain: MLRKLAAVSLLSLLSAPLLAAECSVDIQGNDQMQFNTNAITVDKSCKQFTVNLSHPGNLPKNVMGHNWVLSTAADMQGVVTDGMASGLDKDYLKPDDSRVIAHTKLIGSGEKDSVTFDVSKLKEGEQYMFFCTFPGHSALMKGTLTLK
Tm (Absorbance, Phosphate 10 mM): 78 °C | unfolding enthalpy (calorimetric) (DSC, Potassium phosphate 100 mM): 141 kcal/mol and 130 kcal/mol and 136 kcal/mol
